Measurements as given in publication PMC6733935, “A convenient and efficient total solid-phase synthesis of DOTA-functionalized tumor-targeting peptides for PET imaging of cancer” (EJNMMI Research, 2019).
Numbered stars: 1 amine (or outer) side, 2 acyl side, 3 side chain; on linkers, the order of the positions; unused ones are H or OH. Square brackets hold non-standard residues; d marks the D form. Peptide text beside a SMILES is read from it. * marks the point of attachment. DOTA = O=C(O)CN1CCN(CC(=O)O)CCN(CC(=O)*)CCN(CC(=O)O)CC1; Cha = N[C@@H](CC1CCCCC1)C(=O)O; X1 = O=C(CCC(=O)[*:2])CN[*:1]; Nle = CCCC[C@H](N)C(=O)O; Ahx = NCCCCCC(=O)O

How the values were obtained:
in vivo [1] = assay: in vivo; parameters: species or system Balb/c mice; conditions: Balb/c, mouse, iv; for dose excreted at 1 h / dose excreted at 2 h / tissue uptake at 1 h / tissue uptake at 2 h: total radioactivity
Protocol: Approval for the animal protocol used in this study was obtained from the Institutional Animal Care and Use Committee. Animal studies were conducted according to the international regulations governing the safe and proper use of laboratory animals. In vivo biodistribution were performed on healthy Balb/c mice (n = 3–5 in each group, body weight 19–22 g) at 1 and 2 h after intravenous injection of the HPLC-purified radiopeptide (100 μL, 15–20 μCi, total peptide dose ~ 20 ng) via the lateral tail vein. The mice were sacrificed by cervical dislocation at specified time points and blood samples were withdrawn with a syringe from the heart. Major organs such as lungs, stomach, spleen, pancreas, intestines, liver, kidneys, etc. were isolated, weighed, and radioactivity in each organs and tissues were measured using a γ-scintillation counter. Uptake of radioactivity in the tissues and organs was expressed as the percent injected dose per gram (% ID/g) of tissue/organ, which was calculated by comparison with standard solutions representing 10% of the injected dose per animal. For the clearance studies, radioactivity in the urine with bladder and feces is expressed as the percent of the injected dose per tissue (% ID). Values are expressed as mean ± SD for a group of 3-5 animals at each time point.

in vivo [2] = assay type: in vivo, nude mice; conditions: female, nude, mouse, in vivo, total radioactivity; for dose excreted at 1 h / dose excreted at 2 h: Radioactivity in Urine + bladder
Summary of the method: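 Female mice bore subcutaneous left-thigh xenografts of ~5 million MDA-MB-231 cells in PBS, grown 4-6 weeks to 200-300 mg. Animals received 20-30 μCi of 68Ga-labelled peptide and were sacrificed at set time points; tumour and organ uptake measured by γ-counting.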

[3] = test system: BN/GRP receptor-positive MDA-MB-231 tumors; assay: Receptor blocking study in MDA-MB-231 tumor-bearing nude mice; assay type: in vivo
Protocol: For the receptor blocking studies, each animal was injected with excess cold of BN peptide (~ 200 μg) 20 min prior to the radiotracers injection. The animals (n = 2 per group) were sacrificed at 60 min post radiotracers injection and the % ID/g for the tumor and major organs was calculated as stated before.
^68Ga-labeled BN peptides were further investigated in nude mice carrying estrogen-independent and highly aggressive MDA-MB-231 xenografts in order to determine their potential for diagnosis of BN/GRP receptor-positive breast cancer in vivo (Table 4). […] (with 28% washout from the tumors over 2 h). […] When a blocking dose of 300 μg of nonradioactive BN peptide was injected intramuscularly for in vivo saturation of receptors 20 min prior to the administration of radiopeptide, it was observed that the uptake in the tumors was reduced by approximately 80% (0.47 ± 0.06% ID/g blocked vs. 2.32 ± 0.25% ID/g unblocked, P = 0.002), highlighting the specificity of the ^68Ga-labeled BN peptide for respective BN/GRP receptor-positive breast cancer cells. […] The tumor uptake values of other BN peptides varied from 1.78 ± 0.40% to 2.15 ± 0.33% ID/g at 1 h p.i and from 0.84 ± 0.13% to 1.37 ± 0.25% ID/g at 2 h p.i. (Table 4). With the blocking dose, good reduction in the tumors (from 51 to 80%) was attained validating the in vivo tumor receptor specificity of these radiolabeled BN peptides for BN/GRP receptor-positive breast cancer cells.

[4] = assay type: physicochemical
Protocol: For lipophilicity determination, each HPLC-purified radiopeptide (~ 20 μL, ∼ 25 μCi) was added into a glass tube containing an equal volume mixture of n-octanol and water (1 mL each). The samples were vigorously vortexed for 5 min and subsequently centrifuged (5000 rpm, 5 min) to yield two immiscible layers. Duplicate samples (100 μL) from each layer were carefully taken (to avoid cross-contamination between the layers) for radioactivity measurement using a γ-counter. Partition coefficient was determined by the function: partition coefficient = Log10 (radioactivity in octanol layer/radioactivity in aqueous layer).

[5] = Uptake in Intestines (measured without their contents)

In the case of CCCC[C@H](NC(=O)[C@H](Cc1c[nH]cn1)NC(=O)[C@H](CC1CCCCC1)NC(=O)[C@@H](NC(=O)[C@H](C)NC(=O)[C@H](Cc1c[nH]c2ccccc12)NC(=O)[C@H](CCC(N)=O)NC(=O)[C@H](CS)NC(=O)CNC(=O)CNC(=O)CCCCCNC(=O)CN1CCN(CC(=O)O)CCN(CC(=O)O)CCN(CC(=O)O)CC1)C(C)C)C(=O)N[C@@H](CCSC)C(N)=O [^68Ga-DOTA-Ahx-BN Cyclen, metal not drawn] ({DOTA-Ahx}-GGCQWAV[Cha]H[Nle]M-NH2), the “Uptake in Lungs” value (in vivo [1]; 2 h) is reported as 0.10 ± 0.02 %ID/g, the dose excreted at 1 h (in vivo [1]; %ID excreted in Feces) is reported as 0.85 ± 0.17% and the dose excreted at 2 h (in vivo [1]; %ID excreted in Feces) is reported as 0.76 ± 0.11%. For the same compound, the dose excreted at 1 h (in vivo [1]; %ID excreted in Urine) was 80 ± 9.8%, the dose excreted at 2 h (in vivo [1]; %ID excreted in Urine) was 64 ± 6.35% and the tissue uptake at 1 h (in vivo [1]; Uptake in Blood) was 0.18 ± 0.04 %ID/g. The tissue uptake at 2 h (in vivo [1]; Uptake in Blood) was 0.11 ± 0.03 %ID/g, the tissue uptake at 1 h (in vivo [1]; Uptake in Bone) was 0.15 ± 0.03 %ID/g and the tissue uptake at 2 h (in vivo [1]; Uptake in Bone) was 0.06 %ID/g. For the same compound, the tissue uptake at 1 h (in vivo [1]; [5]) was 0.64 ± 0.12 %ID/g, the tissue uptake at 2 h (in vivo [1]; [5]) was 0.41 ± 0.05 %ID/g and the tissue uptake at 1 h (in vivo [1]; Uptake in Kidneys) was 1.98 ± 0.34 %ID/g. The tissue uptake at 2 h (in vivo [1]; Uptake in Kidneys) was 1.41 ± 0.27 %ID/g, the tissue uptake at 1 h (in vivo [1]; Uptake in Liver) was 0.61 ± 0.1 %ID/g and the tissue uptake at 2 h (in vivo [1]; Uptake in Liver) was 0.46 ± 0.07 %ID/g. It also gave a tissue uptake at 1 h (in vivo [1]; Uptake in Lungs) of 0.19 ± 0.04 %ID/g, a tissue uptake at 1 h (in vivo [1]; Uptake in Pancreas) of 1.49 ± 0.12 %ID/g and a tissue uptake at 2 h (in vivo [1]; Uptake in Pancreas) of 1.02 ± 0.15 %ID/g. It also gave a tissue uptake at 1 h (in vivo [1]; Uptake in Spleen) of 0.13 ± 0.01 %ID/g, a tissue uptake at 2 h (in vivo [1]; Uptake in Spleen) of 0.09 ± 0.01 %ID/g and a tissue uptake at 1 h (in vivo [1]; Uptake in Stomach) of 1.48 ± 0.22 %ID/g. For the same compound, the tissue uptake at 2 h (in vivo [1]; Uptake in Stomach) was 0.43 ± 0.11 %ID/g, the dose excreted at 1 h (in vivo [2]) was 64 ± 9.15% and the dose excreted at 2 h (in vivo [2]) was 70 ± 8.7%. It also gave a tissue uptake at 1 h (in vivo [2]; Uptake in Blood) of 0.92 ± 0.15 %ID/g, a tissue uptake at 2 h (in vivo [2]; Uptake in Blood) of 0.51 ± 0.07 %ID/g and a tissue uptake at 1 h (in vivo [2]; [5]) of 0.86 ± 0.12 %ID/g. It also gave a tissue uptake at 2 h (in vivo [2]; [5]) of 0.61 ± 0.06 %ID/g, a tissue uptake at 1 h (in vivo [2]; Uptake in Kidneys) of 4.93 ± 0.38 %ID/g and a tissue uptake at 2 h (in vivo [2]; Uptake in Kidneys) of 4.01 ± 0.41 %ID/g. It also gave a tissue uptake at 2 h (in vivo [2]; Uptake in Lungs) of 0.36 ± 0.03 %ID/g, a tissue uptake at 1 h (in vivo [2]; Uptake in Muscle) of 0.23 ± 0.03 %ID/g and a tissue uptake at 2 h (in vivo [2]; Uptake in Muscle) of 0.19 ± 0.02 %ID/g. It also gave a tissue uptake at 1 h (in vivo [2]; Uptake in Pancreas) of 1.65 ± 0.14 %ID/g, a tissue uptake at 2 h (in vivo [2]; Uptake in Pancreas) of 0.82 ± 0.1 %ID/g and a tissue uptake at 1 h (in vivo [2]; Uptake in Spleen) of 0.25 ± 0.02 %ID/g. The tissue uptake at 2 h (in vivo [2]; Uptake in Spleen) was 0.14 ± 0.01 %ID/g, the tissue uptake at 1 h (in vivo [2]; Uptake in Stomach) was 0.73 ± 0.13 %ID/g and the tissue uptake at 2 h (in vivo [2]; Uptake in Stomach) was 0.34 ± 0.05 %ID/g. The “Tumor uptake, blocked” value ([3]; blocking dose of 300 μg nonradioactive BN peptide 20 min prior to radiopeptide, 1 h p.i., n = 2 per group) was 0.47 ± 0.06 % ID/g, the “reduction of uptake in the tumors with blocking dose” value ([3]; blocking dose of nonradioactive BN peptide 20 min prior, 1 h p.i.) was “approximately 80%” and the “blockade of uptake in pancreas with blocking dose” value ([3]; same blocking dose, maximum blockade) was 80%.

For CCCC[C@H](NC(=O)[C@H](Cc1c[nH]cn1)NC(=O)[C@H](CC1CCCCC1)NC(=O)[C@@H](NC(=O)[C@H](C)NC(=O)[C@H](Cc1c[nH]c2ccccc12)NC(=O)[C@H](CCC(N)=O)NC(=O)[C@H](CS)NC(=O)CNC(=O)CNC(=O)CCC(=O)CNC(=O)CN1CCN(CC(=O)O)CCN(CC(=O)O)CCN(CC(=O)O)CC1)C(C)C)C(=O)N[C@@H](CCSC)C(N)=O [^68Ga-DOTA-ALA-BN Cyclen, metal not drawn] ({DOTA}-[X1]GGCQWAV[Cha]H[Nle]M-NH2), the “Log P (octanol/water)” value [4] was “− 0.80 ± 0.05”, the “Uptake in Lungs” value (in vivo [1]; 1 h) was 1.39 ± 0.30 %ID/g and the “%ID excreted in Urine” value (in vivo [1]; 2 h) was 46.0 ± 9.12 %ID. The “Uptake in Liver” value (in vivo [1]; 2 h) was 1.75 ± 0.26 %ID/g, the “Uptake in Lungs” value (in vivo [1]; 2 h) was 0.98 ± 0.23 %ID/g and the dose excreted at 1 h (in vivo [1]; %ID excreted in Feces) was 1.07 ± 0.17%. For the same compound, the dose excreted at 2 h (in vivo [1]; %ID excreted in Feces) was 0.91 ± 0.14%, the dose excreted at 1 h (in vivo [1]; %ID excreted in Urine) was 53 ± 6.8% and the tissue uptake at 1 h (in vivo [1]; Uptake in Blood) was 0.8 ± 0.16 %ID/g. The tissue uptake at 2 h (in vivo [1]; Uptake in Blood) was 0.51 ± 0.12 %ID/g, the tissue uptake at 1 h (in vivo [1]; Uptake in Bone) was 0.24 ± 0.04 %ID/g and the tissue uptake at 2 h (in vivo [1]; Uptake in Bone) was 0.15 ± 0.02 %ID/g. It also gave a tissue uptake at 1 h (in vivo [1]; [5]) of 0.88 ± 0.15 %ID/g, a tissue uptake at 2 h (in vivo [1]; [5]) of 0.73 ± 0.12 %ID/g and a tissue uptake at 1 h (in vivo [1]; Uptake in Kidneys) of 5.89 ± 1 %ID/g. The tissue uptake at 2 h (in vivo [1]; Uptake in Kidneys) was 3.05 ± 0.41 %ID/g, the tissue uptake at 1 h (in vivo [1]; Uptake in Liver) was 2.3 ± 0.37 %ID/g and the tissue uptake at 1 h (in vivo [1]; Uptake in Pancreas) was 1.54 ± 0.31 %ID/g. The tissue uptake at 2 h (in vivo [1]; Uptake in Pancreas) was 0.89 ± 0.12 %ID/g, the tissue uptake at 1 h (in vivo [1]; Uptake in Spleen) was 0.1 ± 0.01 %ID/g and the tissue uptake at 2 h (in vivo [1]; Uptake in Spleen) was 0.08 %ID/g. For the same compound, the tissue uptake at 1 h (in vivo [1]; Uptake in Stomach) was 1.5 ± 0.37 %ID/g, the tissue uptake at 2 h (in vivo [1]; Uptake in Stomach) was 0.44 ± 0.1 %ID/g and the dose excreted at 1 h (in vivo [2]) was 62 ± 6.28%. The dose excreted at 2 h (in vivo [2]) was 71 ± 9.68%, the tissue uptake at 1 h (in vivo [2]; Uptake in Blood) was 0.79 ± 0.13 %ID/g and the tissue uptake at 2 h (in vivo [2]; Uptake in Blood) was 0.37 ± 0.1 %ID/g. It also gave a tissue uptake at 1 h (in vivo [2]; [5]) of 0.9 ± 0.12 %ID/g, a tissue uptake at 2 h (in vivo [2]; [5]) of 0.6 ± 0.1 %ID/g and a tissue uptake at 1 h (in vivo [2]; Uptake in Kidneys) of 5.94 ± 0.63 %ID/g. For the same compound, the tissue uptake at 2 h (in vivo [2]; Uptake in Kidneys) was 3.2 ± 0.32 %ID/g, the tissue uptake at 1 h (in vivo [2]; Uptake in Liver) was 1.4 ± 0.26 %ID/g and the tissue uptake at 2 h (in vivo [2]; Uptake in Liver) was 1.12 ± 0.19 %ID/g. It also gave a tissue uptake at 2 h (in vivo [2]; Uptake in Lungs) of 0.67 ± 0.13 %ID/g, a tissue uptake at 1 h (in vivo [2]; Uptake in Muscle) of 0.3 ± 0.06 %ID/g and a tissue uptake at 2 h (in vivo [2]; Uptake in Muscle) of 0.21 ± 0.03 %ID/g. The tissue uptake at 1 h (in vivo [2]; Uptake in Pancreas) was 1.05 ± 0.12 %ID/g, the tissue uptake at 2 h (in vivo [2]; Uptake in Pancreas) was 0.88 ± 0.11 %ID/g and the tissue uptake at 1 h (in vivo [2]; Uptake in Spleen) was 0.26 ± 0.03 %ID/g. The tissue uptake at 1 h (in vivo [2]; Uptake in Stomach) was 0.87 ± 0.19 %ID/g and the tissue uptake at 2 h (in vivo [2]; Uptake in Stomach) was 0.46 ± 0.05 %ID/g.
